From patent publication US20230064326A1, “OPTOGENETIC COMPOSITIONS COMPRISING A CBh PROMOTER SEQUENCE AND METHODS FOR USE” (Vedere Bio II, Inc., priority 2021, published 2023)

Tested on: NHP retinas
Test: SNAP immunostaining to visualize SNAP-mGluR2 expression in NHP retinas
Assay type: in vivo, Cynomolgus macaques and African Green monkeys
Settings: non-human primates; central and peripheral retina

B1: CBh promoter: promoter of SEQ ID NO: 1: CMV enhancer, chicken beta actin promoter and hybrid intron; in b245 driving SNAP-mGluR2 (nucleic acid)
DNA: CGTTACATAACTTACGGTAAATGGCCCGCCTGGCTGACCGCCCAACGACCCCCGCCCATTGACGTCAATAATGACGTATGTTCCCATAGTAACGCCAATAGGGACTTTCCATTGACGTCAATGGGTGGAGTATTTACGGTAAACTGCCCACTTGGCAGTACATCAAGTGTATCATATGCCAAGTACGCCCCCTATTGACGTCAATGACGGTAAATGGCCCGCCTGGCATTATGCCCAGTACATGACCTTATGGGACTTTCCTACTTGGCAGTACATCTACGTATTAGTCATCGCTATTACCATGGTCGAGGTGAGCCCCACGTTCTGCTTCACTCTCCCCATCTCCCCCCCCTCCCCACCCCCAATTTTGTATTTATTTATTTTTTAATTATTTTGTGCAGCGATGGGGGCGGGGGGGGGGGGGGGGCGCGCGCCAGGCGGGGCGGGGCGGGGCGAGGGGCGGGGCGGGGCGAGGCGGAGAGGTGCGGCGGCAGCCAATCAGAGCGGCGCGCTCCGAAAGTTTCCTTTTATGGCGAGGCGGCGGCGGCGGCGGCCCTATAAAAAGCGAAGCGCGCGGCGGGCGGGAGTCGCTGCGACGCTGCCTTCGCCCCGTGCCCCGCTCCGCCGCCGCCTCGCGCCGCCCGCCCCGGCTCTGACTGACCGCGTTACTCCCACAGGTGAGCGGGCGGGACGGCCCTTCTCCTCCGGGCTGTAATTAGCTGAGCAAGAGGTAAGGGTTTAAGGGATGGTTGGTTGGTGGGGTATTAATGTTTAATTACCTGGAGCACCTGCCTGAAATCACTTTTTTTCAG
modifications: misc_feature 1..812 CBH promoter sequence
notes: in b245 driving SNAP-mGluR2
expression of a SNAP-mGluR2 transgene, promoter comparison (CBh vs synapsin): much more robust expression
